Measured values: article PMC9482650, “Quantitative fragmentomics allow affinity mapping of interactomes” (Nature Communications, 2022)

Legend:
Assay in all cases: holdup assay
Set-up in all cases: key: below the threshold = too weak to quantify, mostly under pKd 3.1 to 4
APBA3_1, O96018 = biological target: T1, APBA3_1, O96018
T1 sequence (O96018 389-490, limits assumed, looked up): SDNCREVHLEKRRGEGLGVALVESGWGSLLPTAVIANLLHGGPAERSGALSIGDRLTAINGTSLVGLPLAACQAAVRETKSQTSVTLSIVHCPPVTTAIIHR

PARD3B_1, Q8TEW8 = biological target: T2, PARD3B_1, Q8TEW8
T2 sequence (Q8TEW8 196-299, limits assumed, looked up): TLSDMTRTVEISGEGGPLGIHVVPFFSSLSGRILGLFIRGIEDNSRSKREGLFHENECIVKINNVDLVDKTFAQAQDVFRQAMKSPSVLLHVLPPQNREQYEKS

SHANK1, Q9Y566 = biological target: T3, SHANK1, Q9Y566
T3 sequence (Q9Y566 658-767, limits assumed, looked up): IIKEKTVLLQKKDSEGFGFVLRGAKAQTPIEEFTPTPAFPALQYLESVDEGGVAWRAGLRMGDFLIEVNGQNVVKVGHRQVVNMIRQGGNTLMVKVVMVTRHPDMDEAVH

LAP2, Q96RT1 = biological target: LAP2, Q96RT1
DLG1_2, Q12959 = biological target: DLG1_2, Q12959
PCLO, Q9Y6V0 = biological target: T4, PCLO, Q9Y6V0
T4 sequence (Q9Y6V0 4491-4600, limits assumed, looked up): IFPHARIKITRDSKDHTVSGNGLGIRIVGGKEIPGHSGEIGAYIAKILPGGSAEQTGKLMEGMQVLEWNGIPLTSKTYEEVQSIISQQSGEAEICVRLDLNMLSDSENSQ

TJP1_2, Q07157 = biological target: TJP1_2, Q07157
Inadl_6, Q8NI35 = biological target: Inadl_6, Q8NI35
GRIP1_4, Q9Y3R0 = biological target: T5, GRIP1_4, Q9Y3R0
T5 sequence (Q9Y3R0 467-571, limits assumed, looked up): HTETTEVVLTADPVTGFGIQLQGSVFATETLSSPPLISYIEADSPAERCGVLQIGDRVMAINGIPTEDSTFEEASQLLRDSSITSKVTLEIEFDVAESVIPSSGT

GRIP1_3, Q9Y3R0 = biological target: T6, GRIP1_3, Q9Y3R0
T6 sequence (Q9Y3R0 247-346, limits assumed, looked up): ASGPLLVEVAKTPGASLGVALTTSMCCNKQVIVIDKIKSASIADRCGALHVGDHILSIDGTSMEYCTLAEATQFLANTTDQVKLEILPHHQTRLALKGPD

MPP6, Q9NZW5 = biological target: T7, MPP6, Q9NZW5
T7 sequence (Q9NZW5 125-219, limits assumed, looked up): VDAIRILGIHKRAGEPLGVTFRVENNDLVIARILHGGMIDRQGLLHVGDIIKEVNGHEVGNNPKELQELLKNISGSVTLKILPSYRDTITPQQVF

DLG3_2, Q92796 = biological target: T8, DLG3_2, Q92796
T8 sequence (Q92796 221-321, limits assumed, looked up): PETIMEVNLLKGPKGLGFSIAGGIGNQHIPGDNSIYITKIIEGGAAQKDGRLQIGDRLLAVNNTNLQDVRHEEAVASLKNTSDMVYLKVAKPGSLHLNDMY

FRMPD2_3, Q68DX3 = biological target: FRMPD2_3, Q68DX3
PTPN13_1, Q12923 = biological target: T9, PTPN13_1, Q12923
T9 sequence (Q12923 1088-1188, limits assumed, looked up): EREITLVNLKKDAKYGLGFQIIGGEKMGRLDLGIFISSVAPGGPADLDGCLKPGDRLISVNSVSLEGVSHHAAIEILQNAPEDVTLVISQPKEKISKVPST

MPDZ_12, O75970 = biological target: T10, MPDZ_12, O75970
T10 sequence (O75970 1857-1958, limits assumed, looked up): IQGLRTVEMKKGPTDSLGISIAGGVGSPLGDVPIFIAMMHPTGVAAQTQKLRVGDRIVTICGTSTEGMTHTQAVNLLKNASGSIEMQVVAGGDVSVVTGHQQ

DFNB31_1, Q9P202 = biological target: T11, DFNB31_1, Q9P202
T11 sequence (Q9P202 135-233, limits assumed, looked up): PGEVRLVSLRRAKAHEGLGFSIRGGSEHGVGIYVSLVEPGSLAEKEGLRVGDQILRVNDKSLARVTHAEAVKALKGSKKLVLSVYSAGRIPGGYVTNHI

FRMPD2_2, Q68DX3 = biological target: FRMPD2_2, Q68DX3
GIPC2, Q8TF65 = biological target: GIPC2, Q8TF65
CASK, O14936 = biological target: CASK, O14936
APBA1_2, Q02410 = biological target: T12, APBA1_2, Q02410
T12 sequence (Q02410 742-832, limits assumed, looked up): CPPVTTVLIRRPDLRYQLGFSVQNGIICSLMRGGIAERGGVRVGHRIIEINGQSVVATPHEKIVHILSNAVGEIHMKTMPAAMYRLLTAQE

NHERF2_2, Q15599 = biological target: NHERF2_2, Q15599
PDZD7_3, Q9H5P4 = biological target: T13, PDZD7_3, Q9H5P4
T13 sequence (Q9H5P4 857-944, limits assumed, looked up): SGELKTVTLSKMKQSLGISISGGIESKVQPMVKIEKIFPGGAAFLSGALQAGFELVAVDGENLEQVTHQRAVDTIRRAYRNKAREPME

MAGI2_4, Q86UL8 = biological target: MAGI2_4, Q86UL8
Inadl_4, Q8NI35 = biological target: Inadl_4, Q8NI35
[1] = plain residues with an end cap or a label only (N-terminal biotin on a linker: ttds)
[2] = plain residues with an end cap or a label only (N-terminal biotin on a linker: ado-ado)

Sequence of GIPC2, Q8TF65 (Q8TF65 112-203): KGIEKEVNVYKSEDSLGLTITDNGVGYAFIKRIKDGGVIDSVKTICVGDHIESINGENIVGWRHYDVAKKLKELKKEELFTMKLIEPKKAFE
Sequence of Inadl_6, Q8NI35 (Q8NI35 1058-1167): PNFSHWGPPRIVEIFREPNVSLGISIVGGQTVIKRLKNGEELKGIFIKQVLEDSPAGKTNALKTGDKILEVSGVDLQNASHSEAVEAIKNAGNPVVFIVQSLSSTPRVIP
Sequence of FRMPD2_3, Q68DX3 (Q68DX3 1073-1166): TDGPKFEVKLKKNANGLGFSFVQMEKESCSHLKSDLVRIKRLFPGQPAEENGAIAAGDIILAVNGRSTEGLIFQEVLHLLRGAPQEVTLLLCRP
Sequence of LAP2, Q96RT1 (Q96RT1 other isoform, or with tags, fused parts or gaps): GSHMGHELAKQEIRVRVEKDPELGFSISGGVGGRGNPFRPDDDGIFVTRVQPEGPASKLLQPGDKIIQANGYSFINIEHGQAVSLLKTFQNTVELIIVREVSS
Sequence of CASK, O14936 (O14936 487-570): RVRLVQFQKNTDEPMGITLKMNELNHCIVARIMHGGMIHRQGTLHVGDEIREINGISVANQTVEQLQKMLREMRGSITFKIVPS
Sequence of DLG1_2, Q12959 (Q12959 314-412): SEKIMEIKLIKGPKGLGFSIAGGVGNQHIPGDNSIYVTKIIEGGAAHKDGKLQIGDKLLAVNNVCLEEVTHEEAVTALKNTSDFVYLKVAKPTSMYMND
Sequence of NHERF2_2, Q15599 (Q15599 142-238): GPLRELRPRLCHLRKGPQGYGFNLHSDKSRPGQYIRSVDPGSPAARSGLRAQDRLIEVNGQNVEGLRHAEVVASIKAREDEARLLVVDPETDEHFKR
Sequence of FRMPD2_2, Q68DX3 (Q68DX3 944-1038): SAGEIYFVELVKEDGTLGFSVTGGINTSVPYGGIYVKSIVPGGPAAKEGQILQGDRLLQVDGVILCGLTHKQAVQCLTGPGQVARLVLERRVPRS
Sequence of TJP1_2, Q07157 (Q07157 181-274): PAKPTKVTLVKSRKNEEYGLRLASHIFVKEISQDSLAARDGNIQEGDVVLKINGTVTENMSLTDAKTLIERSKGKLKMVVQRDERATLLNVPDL
Sequence of MAGI2_4, Q86UL8 (Q86UL8 772-865): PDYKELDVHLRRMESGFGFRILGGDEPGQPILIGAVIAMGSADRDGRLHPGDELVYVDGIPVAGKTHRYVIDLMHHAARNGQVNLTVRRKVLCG
Sequence of Inadl_4, Q8NI35 (Q8NI35 547-651): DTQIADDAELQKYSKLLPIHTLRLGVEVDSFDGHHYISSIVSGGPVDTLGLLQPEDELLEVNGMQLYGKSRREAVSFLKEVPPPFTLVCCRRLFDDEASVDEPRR

## QFQYAKESYI [TAGAP, Q8N103]
APBA3_1, O96018; [1]
  pKd: below the threshold
PARD3B_1, Q8TEW8; [1]
  pKd: 3.98
SHANK1, Q9Y566; [1]
  pKd: below the threshold
LAP2, Q96RT1; [1]
  pKd: 3.48
DLG1_2, Q12959; [1]
  pKd: 4.85
PCLO, Q9Y6V0; [1]
  pKd: below the threshold
TJP1_2, Q07157; [1]
  pKd: below the threshold
Inadl_6, Q8NI35; [1]
  pKd: 4.06
GRIP1_4, Q9Y3R0; [1]
  pKd: below the threshold
GRIP1_3, Q9Y3R0; [1]
  pKd: below the threshold
MPP6, Q9NZW5; [1]
  pKd: below the threshold
DLG3_2, Q92796; [1]
  pKd: 4.15
FRMPD2_3, Q68DX3; [1]
  pKd: below the threshold
PTPN13_1, Q12923; [1]
  pKd: below the threshold
MPDZ_12, O75970; [1]
  pKd: below the threshold
DFNB31_1, Q9P202; [1]
  pKd: 4.24
FRMPD2_2, Q68DX3; [1]
  pKd: 4.33
GIPC2, Q8TF65; [1]
  pKd: 3.78
CASK, O14936; [1]
  pKd: below the threshold
APBA1_2, Q02410; [1]
  pKd: 3.8
NHERF2_2, Q15599; [1]
  pKd: below the threshold
PDZD7_3, Q9H5P4; [1]
  pKd: 4.87
MAGI2_4, Q86UL8; [1]
  pKd: below the threshold
Inadl_4, Q8NI35; [1]
  pKd: below the threshold

## LCALPKVTTV [AGMAT, Q9BSE5]
APBA3_1, O96018; [1]
  pKd: below the threshold
PARD3B_1, Q8TEW8; [1]
  pKd: below the threshold
SHANK1, Q9Y566; [1]
  pKd: below the threshold
LAP2, Q96RT1; [1]
  pKd: 3.61
DLG1_2, Q12959; [1]
  pKd: 5.87
PCLO, Q9Y6V0; [1]
  pKd: below the threshold
TJP1_2, Q07157; [1]
  pKd: below the threshold
Inadl_6, Q8NI35; [1]
  pKd: 3.88
GRIP1_4, Q9Y3R0; [1]
  pKd: below the threshold
GRIP1_3, Q9Y3R0; [1]
  pKd: below the threshold
MPP6, Q9NZW5; [1]
  pKd: 3.54
DLG3_2, Q92796; [1]
  pKd: 5.31
FRMPD2_3, Q68DX3; [1]
  pKd: below the threshold
PTPN13_1, Q12923; [1]
  pKd: below the threshold
MPDZ_12, O75970; [1]
  pKd: below the threshold
DFNB31_1, Q9P202; [1]
  pKd: below the threshold
FRMPD2_2, Q68DX3; [1]
  pKd: 3.72
GIPC2, Q8TF65; [1]
  pKd: below the threshold
CASK, O14936; [1]
  pKd: below the threshold
APBA1_2, Q02410; [1]
  pKd: 3.86
NHERF2_2, Q15599; [1]
  pKd: below the threshold
PDZD7_3, Q9H5P4; [1]
  pKd: 5.41
MAGI2_4, Q86UL8; [1]
  pKd: 4.55
Inadl_4, Q8NI35; [1]
  pKd: below the threshold

## GKKSVKHSKI [ACOT6, Q3I5F7]
APBA3_1, O96018; [2]
  pKd: below the threshold
PARD3B_1, Q8TEW8; [2]
  pKd: below the threshold
SHANK1, Q9Y566; [2]
  pKd: below the threshold
LAP2, Q96RT1; [2]
  pKd: below the threshold
DLG1_2, Q12959; [2]
  pKd: 3.97
PCLO, Q9Y6V0; [2]
  pKd: below the threshold
TJP1_2, Q07157; [2]
  pKd: below the threshold
Inadl_6, Q8NI35; [2]
  pKd: below the threshold
GRIP1_4, Q9Y3R0; [2]
  pKd: below the threshold
GRIP1_3, Q9Y3R0; [2]
  pKd: below the threshold
MPP6, Q9NZW5; [2]
  pKd: 3.5
DLG3_2, Q92796; [2]
  pKd: below the threshold
FRMPD2_3, Q68DX3; [2]
  pKd: below the threshold
PTPN13_1, Q12923; [2]
  pKd: 3.47
MPDZ_12, O75970; [2]
  pKd: below the threshold
DFNB31_1, Q9P202; [2]
  pKd: 4.33
FRMPD2_2, Q68DX3; [2]
  pKd: below the threshold
GIPC2, Q8TF65; [2]
  pKd: below the threshold
CASK, O14936; [2]
  pKd: below the threshold
APBA1_2, Q02410; [2]
  pKd: below the threshold
NHERF2_2, Q15599; [2]
  pKd: below the threshold
PDZD7_3, Q9H5P4; [2]
  pKd: 4.58
MAGI2_4, Q86UL8; [2]
  pKd: below the threshold
Inadl_4, Q8NI35; [2]
  pKd: below the threshold
